Five molecules from patent US10772928B2, “Modulation and detection of a neuronal alternative splicing regulatory network for treatment and diagnosis of neurological disorders” (The Governing Council of the University of Toronto, priority 2014, dated 2020) can be followed below.

The target of the assay is T1, nSR100 (Mus musculus, UniProt Q8BKA3).
T1 construct: host or cells: mouse N2A cells
T1 sequence (Q8BKA3 1-608): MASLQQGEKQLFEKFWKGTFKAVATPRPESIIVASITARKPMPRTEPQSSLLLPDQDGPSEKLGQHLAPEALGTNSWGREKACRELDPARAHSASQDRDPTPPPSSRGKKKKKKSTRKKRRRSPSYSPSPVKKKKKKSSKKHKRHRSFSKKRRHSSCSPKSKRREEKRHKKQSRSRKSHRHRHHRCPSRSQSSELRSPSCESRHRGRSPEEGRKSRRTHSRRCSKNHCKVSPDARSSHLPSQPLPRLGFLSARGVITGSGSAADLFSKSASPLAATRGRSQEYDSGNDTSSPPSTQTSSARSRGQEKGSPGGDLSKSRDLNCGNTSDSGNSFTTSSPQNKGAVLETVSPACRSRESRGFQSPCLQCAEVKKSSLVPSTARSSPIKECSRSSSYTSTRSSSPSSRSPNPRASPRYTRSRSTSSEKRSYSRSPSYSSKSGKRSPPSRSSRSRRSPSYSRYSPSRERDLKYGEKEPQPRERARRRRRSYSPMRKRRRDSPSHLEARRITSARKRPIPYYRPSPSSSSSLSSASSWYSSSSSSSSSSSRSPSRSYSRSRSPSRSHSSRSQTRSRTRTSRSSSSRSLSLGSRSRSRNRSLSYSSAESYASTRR
The experiment in a line: AP-MS nSR100 interaction partners from mouse N2A cells (Table 5). Format: binding. The settings on record: for AvgP (average of the SAINT scores) / MaxP (maximal SAINT score): bait Srrm4; for FoldChange between the prey Avg spectra of the bait and control purifications: bait Srrm4, 0.1 added to prevent division by 0; for AvgSpec (average number of spectra per replicate): bait Srrm4, 2 replicates; for Spectra (number of spectra for the prey in the purification of the bait): AP-MS; for SpecSum: bait Srrm4, sum of spectra over 2 replicates.

Setting [1] is: bait Srrm4, biological replicate 1 (first number of the cell).
The mark [2] stands for this setting: bait Srrm4, biological replicate 2 (second number of the cell).

From the text: By applying affinity purification coupled to mass-spectrometry (AP-MS), several interaction nSR100 partner proteins were detected that provide insight into mechanisms of post-translational regulation of nSR100 levels.

B1: Cwc22 (protein, UniProt Q8C5N3 1-908, looked up)
Pre-mRNA-splicing factor …: MKSSVAHMKSSGHNRRETHSSYRRSSSPEDRYTEQERSPRDRGYSDYSRSDYERSRRGYSYDDSMESRSRDREKRRERERDADHRKRSRKSPSPDRSPARGGGQSSPQEEPTWKKKKDELDPLLTRTGGAYIPPAKLRMMQEQITDKSSLAYQRMSWEALKKSINGLINKVNISNISIIIQELLQENIVRGRGLLSRSVLQAQSASPIFTHVYAALVAIINSKFPQIGELILKRLILNFRKGYRRNDKQLCLTASKFVAHLINQNVAHEVLCLEMLTLLLERPTDDSVEVAIGFLKECGLKLTQVSPRGINAIFERLRNILHESEIDKRVQYMIEVMFAVRKDGFKDHPVILEGLDLVEEDDQFTHMLPLEDDYNPEDVLNVFKMDPNFMENEEKYKAIKKEILDEGDSDSNTDQGAGSSEDEEEEDEEEEGEDEEGGQKVTIHDKTEINLVSFRRTIYLAIQSSLDFEECAHKLLKMEFAESQTKELCNMILDCCAQQRTYEKFFGLLAGRFCMLKKEYMESFESIFKEQYDTIHRLETNKLRNVAKMFAHLLYTDSLPWSVLECIKLSEETTTSSSRIFVKIFFQELCEYMGLPKLNARLKDETLQPFFEGLLPRDNPRNTRFAINFFTSIGLGGLTDELREHLKNTPKVIVAQKPEAEQKKPALTSSSSESSSASDSSDSESDSSESSSESSSDASDSSSSSSTQSSTSGITAHSAKGTRKKRQGKARGEEVDKLARGHQALERRREGGREDQRHQEGRTERARSERRRAQNSRDADWRDPLAKHIDDRSHENSHSRVGNGREQGSHREPEDRHGEPKKRRERRDSFSENEKQRSRNQDSDNVRRKDRSKSRERSRRHSGHKGDDARCQNSAERRWEKPGRRPEQSRESKRSQDRRREKSPTTQK
Take B1: the “AvgP (average of the SAINT scores)” value stood at 1; the “MaxP (maximal SAINT score)” value is reported as 1; the “FoldChange between the prey Avg spectra of the bait and control purifications” value (“FoldChange between the prey Avg spectra” for short) is 385; the “AvgSpec (average number of spectra per replicate)” value is 38.5. The same molecule displayed a SpecSum of 77. Besides, under setting [1], the “Spectra (number of spectra for the prey in the purification of the bait)” value is on record as 37. Further, under setting [2], the “Spectra (number of spectra for the prey in the purification of the bait)” value is 40.

B2: Poldip3 (protein, UniProt Q8BG81 2-420, looked up)
Polymerase delta-interacting …: ADLSLDELIRKRGTAAKGRLSVRPGIGGVRSRVGIQHSLVNQPARTATFQQRFDARQKIGLSDARLKLGVKDAREKLLQKDARFRIKGKVQDAREMLNSRKQQGTVPQKPRQVADAREKISLKRRSPAAFTSPPIGTVTPALKLTKTIQVPQQKAMVPLHAHPAGMRINVVNNHQAKQNLYDLDEDDDIVVPVPPKQMKFAATGSLVHHMTGLSSSKLSMSKALPLTKVVQNDAYTAPVLPSSVRTKALTSMSRTLVNKEEPPKELPPAEPVLSPLEGTKMTVNNLHPRVTEEDIVELFCVCGALKRARLVHPGVAEVVFVKKDDAITAYKKYNNRCLDGQPMKCNLHMNGNVITSDQPILLRLSDSPSVKKESELPRRGNPASSNPPAEVDPDTVLRALFKSSGASVTTQPTEFKIKL
With B2, the “AvgP (average of the SAINT scores)” value was found to be 1; the “MaxP (maximal SAINT score)” value is listed as 1; the “FoldChange between the prey Avg spectra” value is reported as 65; the “AvgSpec (average number of spectra per replicate)” value is reported as 6.5. The same molecule showed a SpecSum of 13. The “Spectra (number of spectra for the prey in the purification of the bait)” value under setting [1] is reported as 7. Also, the “Spectra (number of spectra for the prey in the purification of the bait)” value under setting [2] is 6.

B3: Ddx47 (protein, UniProt Q9CWX9 2-455, looked up)
Probable ATP-dependent RNA …: AADEEPDSPSGALQTAAEEEETKTFKDLGVTDVLCEACDQLGWAKPTKIQIEAIPLALQGRDIIGLAETGSGKTGAFALPILNALLETPQRLFALVLTPTRELAFQISEQFEALGSSIGVQCAVIVGGIDSMSQSLALAKKPHIVIATPGRLIDHLENTKGFNLRALKYLVMDEADRILNMDFETEVDKILKVIPRDRKTFLFSATMTKKVQKLQRAALKNPVKCAVSSKYQTVEKLQQYYLFIPSKFKDTYLVYILNELAGNSFMIFCSTCNNTQRTALLLRNLGFTAIPLHGQMSQSKRLGSLNKFKAKARSILLATDVASRGLDIPHVDVVVNFDIPTHSKDYIHRVGRTARAGRSGKAITFVTQYDVELFQRIEHLIGKKLPVFPTQDEEVMMLTERVNEAQRFARMELREHGEKKKRKREDAGDDDDKEGAIGVRNKVAGGKMKKRKGR
On to B3, for which the “AvgP (average of the SAINT scores)” value amounted to 1; the “MaxP (maximal SAINT score)” value is 1; the “FoldChange between the prey Avg spectra” value was found to be 35; the “AvgSpec (average number of spectra per replicate)” value is 3.5. The SpecSum was 7. Moreover, the “Spectra (number of spectra for the prey in the purification of the bait)” value under setting [1] worked out at 3. Besides, the “Spectra (number of spectra for the prey in the purification of the bait)” value under setting [2] is on record as 4.

B4: Ccdc55 (protein, UniProt Q5NCR9 1-542, looked up)
Nuclear speckle splicing …: MAIPGRQYGLILPKKTQPLHRVLQKPSVFGSDSDDDETSVSESLQREAAKKQAMKQTKLEIQKALAEDSTVYEYDSVYDEMQKKKEENNPKLLPGKDRKPKYIHNLLKAVEIRKKEQEKRMEKKIQREREMENGEFDDKEAFVTSAYKKKLEERAEEEEREKRAAALEAHLDVTKQKDLSGFYRHLLNQAVGEEAAPKSSFREARTVIKEEKLRGYPDETNSESRPPQQSCVLQRGAQEAEENPDADREFDDESSEDGEKRDHKVKSRGEDTGASMKHPKHHKNRAHSRSSSEERGLGTKHHSRGSQSRGHEHQDRQSRDQESCHKDRSHREEKSSHRHREASHKDHYWKKHEQEDKLKGREQEERQDREGKREKYSSREQERDRQRNDHDRYSEKEKKRKEKEEHTKARRERCEDSGKHREREKPEGHGQSSERHRDRRESSPRSRPKDDLDQERSSKARNTEKDKGEQGKPSHSETSLATKHRLAEERPEKGSEQERPPEAVSKFAKRSNEETVMSARDRYLARQMARINAKTYIEKEDD
For B4, the “AvgP (average of the SAINT scores)” value was 1; the “MaxP (maximal SAINT score)” value stood at 1; the “FoldChange between the prey Avg spectra” value is on record as 75; the “AvgSpec (average number of spectra per replicate)” value is 7.5. Further, the SpecSum was 15. The “Spectra (number of spectra for the prey in the purification of the bait)” value under setting [1] stood at 5. Also, the “Spectra (number of spectra for the prey in the purification of the bait)” value under setting [2] was 10.

B5: Csnk2a2 (protein, UniProt O54833 1-350, looked up)
Casein kinase II subunit …: MPGPAAGSRARVYAEVNSLRSREYWDYEAHVPSWGNQDDYQLVRKLGRGKYSEVFEAINITNNERVVVKILKPVKKKKIKREVKILENLRGGTNIIKLIDTVKDPVSKTPALVFEYINNTDFKQLYQILTDFDIRFYMYELLKALDYCHSKGIMHRDVKPHNVMIDHQQKKLRLIDWGLAEFYHPAQEYNVRVASRYFKGPELLVDYQMYDYSLDMWSLGCMLASMIFRKEPFFHGQDNYDQLVRIAKVLGTDELYGYLKKYHIDLDPHFNDILGQHSRKRWENFIHSENRHLVSPEALDLLDKLLRYDHQQRLTAKEAMEHPYFYPVVKEQSQPCAENTVLSSGLTAAR
B5: the “AvgP (average of the SAINT scores)” value was determined as 1; the “MaxP (maximal SAINT score)” value is reported as 1; the “FoldChange between the prey Avg spectra” value came out at 10; the “AvgSpec (average number of spectra per replicate)” value was determined as 20. The SpecSum is reported as 40. Besides, the “Spectra (number of spectra for the prey in the purification of the bait)” value under setting [1] stood at 16. In addition, under setting [2], the “Spectra (number of spectra for the prey in the purification of the bait)” value worked out at 24.
